Legend:
PANC-1 cells [1] = experiment: Cellular uptake inhibition assay with endocytosis inhibitors; assay type: cell-based, human; details: Cy3-aptamer 200 nM, 1 hour
Description: Cellular uptake inhibition assay. 5×10^3 PANC-1 cells/well were seeded in 96-well plates one day before assay. PANC-1 cells were left either pretreated or untreated with chlorpromazine (CPZ, clathrin endocytosis inhibitor, 10 μg/mL), chloroquine (CQ, clathrin endocytosis inhibitor, 20 μg/mL), dynasore (dynamine inhibitor, 80 μM), genistein (GEZ, caveolae/lipid mediated endocytosis inhibitor, 50 μg/mL), or, cytochalasin D (Cyto D, 5 μM) at 37° C. for 30 min. Subsequently, cells were washed with DPBS and incubated with Cy3-labeled aptamers at 200 nM at 37° C. f for 1 hour. Following incubation, cells were washed with HBSS to remove surface-bound aptamers. Cellular uptake was quantified by fluorescence using a plate reader (Molecular device, SpectraMax iD3). The inhibition of uptake was normalized with inhibitor non-treated groups (mock)

PANC-1 cells [2] = experiment: Co-localization assay with early endosome, late endosome and lysosome markers; assay type: cell-based, human; details: Cy3 labelled aptamer 200 nM, 2 h, live cells expressing GFP-Rab5a, Rab7a or Lamp1
Description: Co-localization assay. 1×10^5 PANC-1 cells were seeded in 35 mm glass-bottom dishes (MatTek, Ashland, Mass.) and grown in appropriate media for 24 h. CellLight™ Early endosome-GFP BacMam 2.0 (Thermo Fisher, C10586, CellLight™ Late endosome-GFP BacMam 2.0 (Thermo Fisher, C10588), or CellLight™ Lysosome-GFP BacMam 2.0 lysosome-GFP (Thermo Fisher, C10596) of 20 μL were added and incubated at 37° C. for 16 h. After confirmation of GFP expression, chemically synthesized TR14 labelled with Cy3 at 200 nM was incubated at 37° C. for 2 h. The co-localization was assessed on live cells by confocal microscopy.

[3] = target: T1, hTfR1 (extracellular domain of hTfR, His6-tagged) (Homo sapiens, UniProt P02786); experiment: Surface plasmon resonance-based biosensor assay (Biacore T100), aptamer-hTfR binding affinity and kinetics
T1 construct: (NP_003225.2) (Cys 89-Phe 760); His6 (N); purchased Sino Biological Inc 11020-H07H; host or cells: HEK293
Source text: Recombinant target protein. hTfR was purchased from Sino Biological Inc (11020-H07H, Beijing, P.R. China). The extracellular domain of hTfR (NP_003225.2) (Cys 89-Phe 760) was expressed with a His6-tag at the N-terminus in human cells (HEK293).
Surface plasmon resonance-based biosensor assay. The Biacore T100 (GE Healthcare, Uppsala, Sweden) was used to monitor label-free interactions of truncated TR14-hTfR1 in real time. The biotinylated aptamer was coupled to a streptavidin-coated Biacore chip (SensorChip SA, BR-1003-98, General Electric Company) by an injection in binding buffer at a concentration of 25 μg/mL (30 mM Tris-HCl, pH 7.5; 150 mM NaCl; 5 mM MgCl2) at 10 uL/min. The RNA was refolded by heating to 65° C., followed by cooling to 37° C., before immobilization. To measure binding kinetics, five concentrations of purified hTfR1 protein were injected at a flow rate of 10 uL/min. After binding, the surface was regenerated by injecting 50 mM NaOH at a flow rate of 15 μL/min for 20 s. Data from the control surface were subtracted. BIAevaluation software (GE Healthcare) was used for analysis. The binding data was fit to a 1:1 binding with a mass transfer model to calculate kinetics parameters as previously described (Hernandez et al, 2009; Soontornworajit et al, 2011)

PANC-1 cells [4] = experiment: Flow cytometry-based binding assay; assay type: cell-based, human; details: Cy3-labelled aptamer 500 nM, 20 minutes in ice, PANC-1, compared with initial RNA library pool
Description: Flow cytometry-based binding assays. Aptamer binding was assessed by flow cytometry. For the assay, the PANC-1 cells were detached using Accutase, washed with PBS and suspended in binding buffer. Next, chemically synthesized aptamers labeled with Cy3 at 500 nM were added to target cells for 20 minutes in ice. Cells were washed with binding buffer and immediately analyzed by NovoCyte (ACEA Biosciences). For the exclusion of dead cells, 4′6′-diamidino-2-phenylindole (DAPI) (1 μg/ml) was used. The data were analyzed with NovoExpress software.

TfR2 = target: T2, TfR2 (Homo sapiens, UniProt Q9UP52); experiment: Cross-reactivity by live cell confocal imaging, TB10 cells (express TfR2, not TfR1); assay type: cell-based; details: Cy3-labelled aptamer, TB10 cells (TfR2 only)
T2 construct: In contrast, TB10 expresses TfR2, not TfR1; endogenous in cells; host or cells: TB10 human glioma cells
T2 sequence (Q9UP52 1-801): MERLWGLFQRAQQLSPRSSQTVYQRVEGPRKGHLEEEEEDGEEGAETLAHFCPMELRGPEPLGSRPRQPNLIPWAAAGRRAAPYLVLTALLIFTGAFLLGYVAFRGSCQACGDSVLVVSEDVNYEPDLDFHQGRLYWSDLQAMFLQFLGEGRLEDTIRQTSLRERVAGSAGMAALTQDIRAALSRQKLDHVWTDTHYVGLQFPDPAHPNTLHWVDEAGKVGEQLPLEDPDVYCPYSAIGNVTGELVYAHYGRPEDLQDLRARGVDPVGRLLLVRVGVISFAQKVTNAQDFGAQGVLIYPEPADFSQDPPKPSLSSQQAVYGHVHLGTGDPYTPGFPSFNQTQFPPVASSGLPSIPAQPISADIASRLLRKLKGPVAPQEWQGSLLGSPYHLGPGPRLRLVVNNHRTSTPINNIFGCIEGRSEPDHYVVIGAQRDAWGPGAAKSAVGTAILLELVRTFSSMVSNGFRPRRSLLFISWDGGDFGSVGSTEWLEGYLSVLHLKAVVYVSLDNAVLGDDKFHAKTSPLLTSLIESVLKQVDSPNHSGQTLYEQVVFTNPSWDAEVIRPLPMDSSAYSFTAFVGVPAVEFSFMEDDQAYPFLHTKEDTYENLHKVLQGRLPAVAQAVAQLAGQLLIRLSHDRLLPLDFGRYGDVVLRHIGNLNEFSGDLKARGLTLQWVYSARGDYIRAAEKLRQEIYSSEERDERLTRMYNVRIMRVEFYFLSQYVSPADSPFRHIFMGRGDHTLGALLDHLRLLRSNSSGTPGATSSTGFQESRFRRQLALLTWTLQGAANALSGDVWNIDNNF
Description: (§1) Cell line. HepG2 (Hepatocarcinoma, HB-8065) and PANC-1 (Pancreatic epithelioid carcinoma, CRL-1469), U-87 MG (Glioblastoma, HTB-14) were purchased from the American Type Culture Collection (ATCC, Manassas, Va.). The cells were cultured according to the suppliers' instructions. TB10 human glioma cell line was obtained from Vittorio de Franciscis lab in Italy. The cells were cultured according to the suppliers' instructions.
(§2) To determine the potential cross-reactivity of the parent TR14, S2 (43-nt) and ST1-3 (22-nt) truncates, we tested chemically synthesized parent TR14, TR14-[…] or TR14-ST1-3 aptamer labelled with Cy3 on live cells imaging by confocal microscopy. To test this, we choose two glioblastoma cell lines (U87MG and TB10) that are selectively expressed of TfR1 or TfR2. The U87MG cells only express TfR1, not TfR2. In contrast, TB10 expresses TfR2, not TfR1.

HepG2 cells = experiment: Live-cell confocal imaging for aptamer internalization, HepG2; assay type: cell-based, human; details: Cy3-labeled aptamer 200 nM, 2-h incubation, HepG2, confocal microscopy
Description: (§3) Live-cell confocal imaging for aptamer internalization. 1×10^5 HepG2 or PANC-1 cells were seeded in 35-mm glass-bottom dishes (MatTek, Ashland, Mass.) and grown in appropriate media for 24 h. Aptamer RNAs were labeled with Cy3 fluorescent dye using the Cy3 Silencer siRNA labeling kit (Thermo Fisher Scientific, Waltham, Mass.). Cy3-labeled aptamers in binding buffer (30 mM Tris-HCl, pH 7.5; 150 mM NaCl; 5 mM MgCl2; 100 μg/mL yeast tRNA) were added to the cells at 200 nM and incubated at 37° C. for 2 h. Before imaging, cells were washed with DPBS twice. Live-cell confocal imaging was performed with a Zeiss LSM 510 Meta inverted two-photon confocal microscope system using a C-Apo 40×/1.2NA water immersion objective, and AIM 4.2 software (Carl Zeiss, Jena, Germany).

TfR1 = target: T3, TfR1 (Homo sapiens, UniProt P02786); experiment: Cross-reactivity by live cell confocal imaging, U87MG cells (express TfR1, not TfR2); assay type: cell-based; details: Cy3-labelled aptamer, U87MG cells (TfR1 only)
T3 construct: The U87MG cells only express TfR1, not TfR2; endogenous in cells; host or cells: U87MG (U-87 MG, ATCC HTB-14)
Description: as §1, §2

PANC-1 cells [5] = experiment: Competition assays with human transferrin or human transferrin receptor antibodies; assay type: cell-based; details: aptamer 200 nM
Description: Competition assays. For competition assays with human transferrin or human transferrin receptor antibodies, 5×10^3 PANC-1 cells/well were seeded in 96-well plates and grown in one day. Cells were pre-incubated with TR14 at 200 nM for 20 min on ice with PBS. After washing with PBS, human transferrin conjugated with Alexa-488 at 25 μg/mL or human transferrin receptor antibody (2 μL/1×10^4 cells) conjugated with FITC were added to cells and the cells were incubated at 37° C. for 40 min. Afterward, the cells were washed with HBSS twice to remove cell surface binders. The intensity of fluorescence was quantified using plate reader (Molecular device, SpectraMax iD5). The intensity was normalized with aptamer non-treated control cells (mock).

PANC-1 cells [6] = experiment: Live-cell confocal imaging for aptamer internalization, PANC-1; assay type: cell-based, human; details: Cy3-labeled aptamer 200 nM, 2-h incubation, PANC-1, confocal microscopy
Description: as §3

[7] = Biacore T100, biotinylated aptamer on streptavidin chip, hTfR1 protein injected, 1:1 binding with mass transfer
[8] = label-free biosensor assay in real-time

T1 sequence (P02786 89-760): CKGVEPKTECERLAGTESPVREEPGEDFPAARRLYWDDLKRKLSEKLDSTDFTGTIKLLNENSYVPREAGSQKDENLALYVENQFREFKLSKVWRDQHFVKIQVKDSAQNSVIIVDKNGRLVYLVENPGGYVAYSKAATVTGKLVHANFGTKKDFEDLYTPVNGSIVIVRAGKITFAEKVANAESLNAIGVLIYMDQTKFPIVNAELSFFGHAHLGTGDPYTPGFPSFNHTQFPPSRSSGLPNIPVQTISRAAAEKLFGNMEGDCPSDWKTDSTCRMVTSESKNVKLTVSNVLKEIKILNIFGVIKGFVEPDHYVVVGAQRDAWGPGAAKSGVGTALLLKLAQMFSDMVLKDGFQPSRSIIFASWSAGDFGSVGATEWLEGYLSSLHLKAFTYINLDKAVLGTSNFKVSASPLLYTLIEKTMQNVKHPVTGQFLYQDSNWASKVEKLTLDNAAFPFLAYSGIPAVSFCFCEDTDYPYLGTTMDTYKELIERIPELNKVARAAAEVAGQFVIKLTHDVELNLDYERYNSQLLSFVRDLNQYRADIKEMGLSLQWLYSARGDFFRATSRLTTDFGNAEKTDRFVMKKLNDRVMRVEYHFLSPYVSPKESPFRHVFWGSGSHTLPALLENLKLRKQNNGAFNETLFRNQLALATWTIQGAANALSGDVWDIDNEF
T3 sequence (P02786 whole entry): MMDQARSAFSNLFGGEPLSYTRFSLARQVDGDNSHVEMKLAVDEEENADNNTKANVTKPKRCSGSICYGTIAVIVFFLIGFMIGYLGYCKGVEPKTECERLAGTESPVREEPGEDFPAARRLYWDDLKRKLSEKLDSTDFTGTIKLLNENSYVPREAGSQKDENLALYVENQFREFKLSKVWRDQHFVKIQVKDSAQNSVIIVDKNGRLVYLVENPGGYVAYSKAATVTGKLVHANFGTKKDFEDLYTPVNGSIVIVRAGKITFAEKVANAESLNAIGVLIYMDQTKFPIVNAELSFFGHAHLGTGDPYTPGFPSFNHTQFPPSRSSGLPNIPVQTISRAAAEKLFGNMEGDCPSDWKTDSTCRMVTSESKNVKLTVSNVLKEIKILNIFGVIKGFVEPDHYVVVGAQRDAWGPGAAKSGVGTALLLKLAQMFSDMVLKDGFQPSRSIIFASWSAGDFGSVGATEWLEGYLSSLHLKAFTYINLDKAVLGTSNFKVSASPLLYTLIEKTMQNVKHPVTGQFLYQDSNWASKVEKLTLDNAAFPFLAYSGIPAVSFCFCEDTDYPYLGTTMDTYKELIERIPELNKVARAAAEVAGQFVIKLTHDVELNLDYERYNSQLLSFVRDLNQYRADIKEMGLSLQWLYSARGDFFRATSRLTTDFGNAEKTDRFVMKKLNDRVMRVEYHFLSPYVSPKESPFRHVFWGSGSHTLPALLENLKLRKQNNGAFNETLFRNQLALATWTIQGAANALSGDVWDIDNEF

B1: TR14: 87-nucleotide anti-hTfR 2′F-RNA aptamer identified after nine rounds of protein SELEX; SEQ ID NO:1 (nucleic acid)
chain: GGGAGACAAGAAUAAACGCUCAAUGCGUUCACGUUUAUUCACAUUUUUGAAUUGAGCAUGAGCUUCGACAGGAGGCUCACAACAGGC
modifications: 2'-fluoro RNA aptamer from SELEX, modified positions not given here
For B1, the “uptake of aptamer after pre-treatment with clathrin mediated endocytosis (CME) inhibitors” value (PANC-1 cells [1]; chlorpromazine 10 μg/mL, chloroquine 20 μg/mL or dynasore 80 μM) was “inhibited significantly”, the “uptake of aptamer after pre-treatment with clathrin independent endocytosis (CIE) inhibitors” value (PANC-1 cells [1]; genistein 50 μg/mL or cytochalasin D 5 μM) was “not interfered” and the “subcellular co-localization with early endosome, late endosome and lysosome” value (PANC-1 cells [2]) was “multiple co-localizations”. The “ka (1/Ms), measured association rate” value [3, 7] was 6780 M⁻¹ s⁻¹, the “kd (1/s), measured disassociation rate” value [3, 7] was 1.68e-06 s⁻¹ and the “association (ka) rate constant” value [3, 8] was 6780 M⁻¹ s⁻¹. The “dissociation (kd) rate constant” value [3, 8] was 1.68e-06 s⁻¹, the Kd ([3]; label-free biosensor assay in real-time, read-out: equilibrium dissociation constant (K^D) for hTfR) was 0.0317 nM and the “cell surface binding by flow cytometry” value (PANC-1 cells [4]) was “enriched cell surface binding”. For the same molecule, the “binding to TfR2” value (TfR2) was “bound to both TfR1 and TfR2”, the cell internalization (HepG2 cells) was “successfully internalized” and the “binding to TfR1” value (TfR1) was “bound to both TfR1 and TfR2”. The “competition with transferrin receptor antibodies” value (PANC-1 cells [5]; FITC-conjugated human transferrin receptor antibody) was “did not compete”, the “internalized transferrin after pre-incubation with aptamer” value (PANC-1 cells [5]; human transferrin-Alexa-488 25 μg/mL) was “significantly inhibited” and the cell internalization (PANC-1 cells [6]) was “successfully internalized”.

From US20220396794A1, “APTAMERS AGAINST TRANSFERRIN RECEPTOR (TfR)” (APTERNA LIMITED, priority 2019, published 2022)
